# Results from patent US20250333760A1, “TEMPERATURE-SENSITIVE NEGATIVE-STRAND RNA VIRUS OR VIRUS VECTOR AND RNA GENOME THEREOF” (REPLI-TECH CO., LTD., priority 2021, published 2025).
# System: HeLa cells
# Experiment: Relative fluorescence intensity of EmGFP having degron (DD tag and mutants) added, expressed from SeV in HeLa cells
# Assay type: cell-based
# Conditions: for Relative fluorescence intensity of EmGFP having degron added thereto, Shield1: 1 μM of Shield-1; for Relative fluorescence intensity of EmGFP having degron added thereto, Shield1 / Relative fluorescence intensity of EmGFP having degron added thereto, dTAG-13 / Relative fluorescence intensity of EmGFP having degron added thereto, (—): 3 days after infection, MOI=10; for Relative fluorescence intensity of EmGFP having degron added thereto, dTAG-13: 5 μM of dTAG-13; for Relative fluorescence intensity of EmGFP having degron added thereto, (—): no Shield-1 or dTAG-13; for Shield1/(—) / Shield1/dTAG-13: ratio of relative fluorescence intensities
# Description: The addition of a proteolytic tag (degron) to a P protein can facilitate the elimination of a SeV. A DD tag is a type of proteolytic tag (see, for example, US 2009/0215169 A). The DD tag (see SEQ ID NO: 18) is a protein of 107 amino acids in length, obtained by introducing F36V and L106P into FKBP12. Adding a low molecular weight compound, Shield-1 provides stabilization, and adding dTAG-13 also promotes degradation of the protein fused with the tag. In the present Example, a DD mutant (DDm; see SEQ ID NO: 19) having 11 mutations (4I, 18K, 36L, 501, 57K, 59F, 63A, 68L, 90V, 981, and 105R) in a DD tag was constructed. In the present Example, in order to investigate the proteolysis-promoting effect of the DDm, the DD tag and its mutants (including the DDm) were added to EmGFP at its C-terminal and loaded at the + position of the SeV vector (having the above mutation described in WO 2003/025570). HeLa cells were infected with the resulting SeV (MOI=10). On the day after infection, 1 μM of Shield-1 or 5 μM of dTAG-13 was added thereto, and the fluorescence from the cell was observed 3 days after infection. When a DDrs tag having the amino acid sequence set forth in SEQ ID NO: 28 was constructed and added to EmGFP at its C-terminal, the effect of stabilizing EmGFP by Sheild-1 was not obtained and the fluorescence intensity was only about 20% of that of a DD-tagged EmGFP (FIG. 8).
molecule,measurement,setting,value
DDm (protein) GVQIETISPGDGRTFPKKGQTCVVHYTGMLEDGKKLDSSRDRNKPFKFMIGKQEVIKGFEEGAAQMSLGQRAKLTISPDYAYGATGHPGVIPPHATLIFDVELLRPE,"Relative fluorescence intensity of EmGFP having degron added thereto, Shield1",37° C.,140.4%
same,"Relative fluorescence intensity of EmGFP having degron added thereto, dTAG-13",37° C.,0.478%
same,"Relative fluorescence intensity of EmGFP having degron added thereto, (—)",37° C.,15.0%
same,Shield1/(—),37° C.,9.39
same,Shield1/dTAG-13,37° C.,293.9
same,"Relative fluorescence intensity of EmGFP having degron added thereto, Shield1",38.5° C.,153%
same,"Relative fluorescence intensity of EmGFP having degron added thereto, dTAG-13",38.5° C.,0.05%
same,"Relative fluorescence intensity of EmGFP having degron added thereto, (—)",38.5° C.,2.5%
same,Shield1/(—),38.5° C.,61.47
same,Shield1/dTAG-13,38.5° C.,3181.7
same,ratio of Shield1/dTAG-13 (in words),"Tables 6 and 7, 37° C. and 38.5° C.",significantly improved
